{"source": "patent US10076576B2", "about": "“Minimally toxic prodrugs” (priority 2012, dated 2018)", "key": {"[1]": {"system": "mouse embryonic fibroblasts (MEF)", "assay": "In vitro cytotoxicity on control fibroblasts (neutral red uptake)", "type": "cell-based", "conditions": "48 h", "experimental": "(§1) FIG. 5. In vitro cellular toxicity of PhAc-ALGP-Dox and Doxorubicin on Cor.At® cells (mouse embryonic stem cell derived cardiomyocytes). As non-specific control, the test was also performed on inactivated mouse embryonic fibroblasts (MEF). Cells were cultured for 48 h in the presence of drugs and a neutral red uptake test was performed to determine cell viability. Results represent the cytotoxicity curves. The IC50 values were calculated from the cytotoxicity curves using the Prism GraphPad software 5.0.\n(§2) The in vitro cardiotoxicity test was carried out in a relevant and predictive in vitro model for cardiac safety screening in early lead optimization using mouse embryonic stem cell derived cardiomyocytes (Cor.At®, Axiogenesis (Germany)). Cor.At® cardiomyocytes provide a standardized, homogenous and reproducible cell system for the in vitro classification of a compound's cardio-cytotoxic potential. After incubation with test compounds, the neutral red uptake test was used to determine effects which directly affect the viability and integrity of cardiac cells when compared to a non-specific reference cell type, e.g. mouse fibroblasts (MEF)."}, "[2]": {"experimental": "FIG. 7. Toxicity study of PhAc-ALGP-Dox after single and multiple intraperitoneal (ip) injections in OF-1 mice. Animals were treated with PhAc-ALGP-Dox with different treatment schedules: at 56 μmol/kg 5× (Q1D5 -*-); at 28 μmol/kg 10× (2Q1D5 -▪-); at 560 μmol/kg 1× (-□-); at 112 μmol/kg 5× (Q1D5 -▴-); at 56 μmol/kg 10× (2Q1D5 -×-).\nPhAc-ALGP-Dox was dissolved in saline and administered by single or multiple intraperitoneal (ip) injections […] of OF-1 mice (10 μl/g). PhAc-ALGP-Dox was administered at similar cumulative doses of 280 and 560 μmol/kg following different injections schedules: single ip injection; 5 consecutive daily ip injections at 56 and 112 μmol/kg or twice a day for five consecutive days at the doses of 28 and 56 μmol/kg. The in vivo toxicity was evaluated by monitoring the body weight."}, "[3]": {"conditions": "mouse, in vivo, iv, 86.2 umol/kg", "method": "Time evolution of plasma concentration (A, B) and of cardiac tissue concentration (C, D) of Doxorubicin or PhAc-ALGP-Dox and its metabolites after i.v. bolus injection to OF-1 female wild type mice at the dose of 86.2 μmol/kg. Results represent the mean concentration±SD (n=3).\nPharmacokinetic tissue distribution studies were performed using OF-1 mice. […] At different time points after drug administration (5 min, 30 min, 1 h, 4 h, 7 h, 16 h and 24 h) 3 mice per group were sacrificed by cervical dislocation and blood and heart tissue were collected. Hearts were incised and rinsed carefully in phosphate buffer saline (to eliminate blood in the cardiac cavities), dried on paper and frozen in liquid nitrogen. They were stored until analysis. Blood samples were centrifuged (10 min, 2000 g, 4° C.) to separate the plasma fraction, which was stored for analysis. The hearts were homogenized with an Ultraturrax homogenizer in 1.5 mL water. The protein concentration was measured using the microBCA protein assay (Pierce). The drug tissue quantification was made by HPLC after extraction: 150 μL of acetonitrile was added to the 50 μL samples. Samples were vortexed and centrifuged for 10 min at 13 000 rpm at room temperature. Supernatant was collected. Samples were buffered by addition of 200 mM formiate buffer pH 4.5 (1 V sample supernatant+3 V buffer) before HPLC analysis (fluo detection ex=235 nm em=560 nm)."}, "[4]": {"assay": "Stability in citrated human plasma", "conditions": "5 hours incubation at 37° C. in citrated human plasma (pH7), 50 μM", "experimental": "The drug conjugates (50 μM) were mixed with human plasma and incubated for 5 hours at 37° C. in a water bath. […] Supernatant was collected."}, "CD26": {"target": "CD26 (Homo sapiens, UniProt P27487)", "sequence (P27487 whole entry)": "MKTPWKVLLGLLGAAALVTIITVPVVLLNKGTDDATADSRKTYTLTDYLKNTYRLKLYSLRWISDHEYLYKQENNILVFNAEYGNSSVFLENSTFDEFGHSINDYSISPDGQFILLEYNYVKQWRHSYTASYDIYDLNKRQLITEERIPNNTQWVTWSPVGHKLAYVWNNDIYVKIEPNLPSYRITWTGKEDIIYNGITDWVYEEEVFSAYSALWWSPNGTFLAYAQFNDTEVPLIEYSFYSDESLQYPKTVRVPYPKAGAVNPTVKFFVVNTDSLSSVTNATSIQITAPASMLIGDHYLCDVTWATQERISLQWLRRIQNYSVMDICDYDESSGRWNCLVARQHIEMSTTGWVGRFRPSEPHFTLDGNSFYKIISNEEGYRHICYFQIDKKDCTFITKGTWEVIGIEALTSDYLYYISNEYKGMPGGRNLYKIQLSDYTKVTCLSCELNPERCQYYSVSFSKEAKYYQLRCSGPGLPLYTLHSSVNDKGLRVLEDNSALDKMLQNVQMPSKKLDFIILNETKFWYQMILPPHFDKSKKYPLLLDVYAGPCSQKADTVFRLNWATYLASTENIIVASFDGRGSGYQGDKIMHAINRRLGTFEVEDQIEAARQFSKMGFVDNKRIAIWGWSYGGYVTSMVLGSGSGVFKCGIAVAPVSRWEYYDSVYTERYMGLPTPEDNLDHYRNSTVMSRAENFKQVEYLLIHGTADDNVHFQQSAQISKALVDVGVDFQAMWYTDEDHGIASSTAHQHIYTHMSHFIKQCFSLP", "assay": "Reactivation assay with purified CD26", "type": "biochemical", "conditions": "CD26 1 μg/ml", "experimental": "(§3) TOP (recombinant human thimet oligopeptidase, R&D systems, Ref 3439-ZN) was diluted at 10 nM in a solution of 50 mM Tris-HCl pH 7.4/0.5M NaCl/0.1M DTT. CD26 and FAP were diluted at 1 μg/mL in a Tris-HCl pH 7.5 buffer. Reactions were initiated by addition of 50 μM of each compound to enzymes solutions (1 V enzyme solution+1 V 100 μM drug solution). Samples were incubated for 0, 1, or 3 hours at 37° C. in a water bath in the presence of purified enzymes. Fifty μL of sample were collected at each time point and processed as described above for human plasma. Activation of Suc-βALAL-dox was tested in parallel as a reference."}, "FAP": {"target": "T1, FAP (Homo sapiens, UniProt Q12884)", "T1 sequence (Q12884 1-760)": "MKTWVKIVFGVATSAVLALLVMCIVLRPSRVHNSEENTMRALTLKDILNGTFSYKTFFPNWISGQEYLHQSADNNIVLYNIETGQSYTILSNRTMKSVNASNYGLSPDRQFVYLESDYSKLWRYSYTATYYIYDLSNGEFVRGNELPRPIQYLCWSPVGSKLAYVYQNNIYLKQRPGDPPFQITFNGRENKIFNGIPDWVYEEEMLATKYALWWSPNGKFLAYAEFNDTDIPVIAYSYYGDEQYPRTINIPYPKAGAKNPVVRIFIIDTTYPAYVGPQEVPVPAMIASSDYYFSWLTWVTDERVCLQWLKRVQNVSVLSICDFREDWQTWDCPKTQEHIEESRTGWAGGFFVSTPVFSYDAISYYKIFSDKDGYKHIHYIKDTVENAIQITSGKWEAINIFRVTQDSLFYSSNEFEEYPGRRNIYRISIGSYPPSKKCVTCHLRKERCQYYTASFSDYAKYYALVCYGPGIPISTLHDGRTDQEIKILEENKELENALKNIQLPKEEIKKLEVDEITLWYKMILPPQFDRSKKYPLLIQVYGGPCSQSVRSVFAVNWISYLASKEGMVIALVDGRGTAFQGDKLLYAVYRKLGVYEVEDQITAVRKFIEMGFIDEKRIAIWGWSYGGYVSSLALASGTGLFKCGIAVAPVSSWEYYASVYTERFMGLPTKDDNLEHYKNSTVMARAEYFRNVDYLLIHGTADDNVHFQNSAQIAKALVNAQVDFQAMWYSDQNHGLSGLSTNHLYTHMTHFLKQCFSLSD", "assay": "Reactivation assay with purified FAP", "type": "biochemical", "experimental": "as §3"}, "[5]": {"assay": "In vivo toxicity after single iv bolus injection (body weight)", "design": "species or system OF-1 mice", "experimental": "FIG. 1. Effect of PhAc-peptide-Dox conjugates on the body weight of OF-1 normal mice (n=4). […] Results represent the mean body weight evolution.\nThe in vivo toxicity was evaluated by monitoring body weight."}, "[6]": {"assay": "In vitro cytotoxicity on Cor.At cardiomyocytes (neutral red uptake)", "type": "cell-based, mouse", "conditions": "mouse, 20 μg/ml", "experimental": "as §1, §2"}, "[7]": {"assay": "Stability in citrated human blood", "conditions": "5 hours incubation at 37° C. in citrated human blood, 50 μM"}}, "note": "Entries after “also recorded” stand apart in the source; their conditions may differ. Read-outs that look alike come from different tables or passages of the source.", "data": [{"compound": "COc1cccc2c1C(=O)c1c(O)c3c(c(O)c1C2=O)C[C@@](O)(C(=O)CO)C[C@@H]3O[C@H]1C[C@H](N)[C@H](O)[C@H](C)O1", "note": "[Doxorubicin, reference compound]", "values": [{"measurement": "viability of MEF", "setting": "[1]; 0.2 μg/ml", "result": 89, "unit": "%"}, {"measurement": "toxic effect on MEF (in words)", "setting": "[1]; 20 μg/ml and 2 μg/ml", "result": "severe toxic effect"}, {"measurement": "maximum tolerated dose", "setting": "[2]; OF-1, mouse, in vivo, ip", "result": 3, "unit": "µmol/kg"}, {"measurement": "Heart AUC of Dox", "setting": "[3]", "result": 5863, "unit": "pmol · h/mg protein"}]}, {"compound": "COc1cccc2c1C(=O)c1c(O)c3c(c(O)c1C2=O)CC(O)(C(=O)CO)CC3OC1CC(NC(=O)C2CCCN2C(=O)CNC(=O)C(CC(C)C)NC(=O)C(C)NC(=O)CP(=O)(O)O)C(O)C(C)O1", "note": "(stereo not shown) [PhAc-ALGP-Dox, PhAc-ALGP-doxorubicin]", "values": [{"measurement": "% metabolites released: Dox", "setting": "[4]", "result": 2, "unit": "%"}, {"measurement": "% metabolites released: GP-dox", "setting": "[4]", "result": 0, "unit": "%"}, {"measurement": "% metabolites released: P-Dox", "setting": "[4]", "result": 0, "unit": "%"}, {"measurement": "total % metabolites", "setting": "[4]", "result": 2, "unit": "%"}, {"measurement": "hydrolysis by CD26 (in words)", "setting": "CD26", "result": "Neither CD26 nor FAP hydrolized; also recorded: did not hydrolyze"}, {"measurement": "hydrolysis by FAP (in words)", "setting": "FAP", "result": "Neither CD26 nor FAP hydrolized; also recorded: did not hydrolyze"}, {"measurement": "maximum body weight loss", "setting": "[5]; 240 μmol/kg single iv, day 28", "result": 15, "unit": "%"}, {"measurement": "body weight loss (in words)", "setting": "[5]; 320 μmol/kg single iv", "result": "significant body weight loss"}, {"measurement": "mortality", "setting": "[5]; 320 μmol/kg single iv", "result": "one mouse was found dead at day 12"}, {"measurement": "tolerability (in words)", "setting": "[5]; 240 and 320 μmol/kg single iv", "result": "well tolerated"}, {"measurement": "MTD", "setting": "[5]; OF-1, mouse, in vivo, single iv bolus injection, read-out: maximum tolerated dose (MTD)", "result": "240 to 320", "unit": "µmol/kg"}, {"measurement": "times less toxic than Dox", "setting": "[5]; after one intravenous injection", "result": "at least 6 times"}, {"measurement": "viability at 48 h, 20 µg/mL", "setting": "[6]", "result": 37, "unit": "%"}, {"measurement": "IC50 on MEF", "setting": "[1]; up to 20 μg/ml", "result": "no IC50 is reached"}, {"measurement": "body weight loss (in words)", "setting": "[2]; 56 μmol/kg, 10 ip injections (twice a day for five consecutive days)", "result": "No body weight loss"}, {"measurement": "maximum body weight loss", "setting": "[2]; 112 μmol/kg, five consecutive daily ip injections, day 11", "result": 22.5, "unit": "%"}, {"measurement": "toxicity (in words)", "setting": "[2]; 560 μmol/kg single ip injection", "result": "very toxic"}, {"measurement": "body weight lost", "setting": "[2]; 560 μmol/kg single ip injection, in one week", "result": 25, "unit": "%"}, {"measurement": "body weight loss (in words)", "setting": "[2]; cumulative dose 280 μmol/kg ip, whatever the injection schedule", "result": "no body weight loss"}, {"measurement": "times less toxic than doxorubicin", "setting": "[2]; ip twice a day for five consecutive days", "result": "about 15 times"}, {"measurement": "% metabolites released: Dox", "setting": "[7]", "result": 6, "unit": "%"}, {"measurement": "% metabolites released: GP-dox", "setting": "[7]", "result": 3, "unit": "%"}, {"measurement": "% metabolites released: P-Dox", "setting": "[7]", "result": 0, "unit": "%"}, {"measurement": "total % metabolites", "setting": "[7]", "result": 9, "unit": "%"}]}]}
